Our source for the Kd values is US20200197485A1.

This test concerns the target Siglec-10Fc (human) (UniProt Q96LC7). The experiment in a line: Biacore (SPR): value printed under the KD line for the control Fc with Siglec-10Fc. No curve is drawn for the control Fc. (SPR reads the build-up and loss of mass on a sensor chip optically.)
UniProt Q96LC7, sequence (Q96LC7 17-546): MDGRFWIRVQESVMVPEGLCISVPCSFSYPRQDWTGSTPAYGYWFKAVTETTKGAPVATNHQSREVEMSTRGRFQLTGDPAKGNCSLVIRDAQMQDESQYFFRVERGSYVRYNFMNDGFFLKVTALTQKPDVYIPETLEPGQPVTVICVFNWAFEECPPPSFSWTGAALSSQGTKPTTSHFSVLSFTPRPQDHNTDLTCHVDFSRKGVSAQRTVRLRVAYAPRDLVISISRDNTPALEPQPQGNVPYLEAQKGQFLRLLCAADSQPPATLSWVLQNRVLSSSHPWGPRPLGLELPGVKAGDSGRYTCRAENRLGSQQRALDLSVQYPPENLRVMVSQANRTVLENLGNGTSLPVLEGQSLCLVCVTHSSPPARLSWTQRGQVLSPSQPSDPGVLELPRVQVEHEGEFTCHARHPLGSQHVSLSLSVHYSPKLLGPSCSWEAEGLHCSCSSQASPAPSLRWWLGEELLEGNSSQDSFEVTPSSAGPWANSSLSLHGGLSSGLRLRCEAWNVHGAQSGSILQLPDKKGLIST

In the case of control Fc, the Kd (as a rule, the constant that tells how readily two partners part at equilibrium) was 16.2 µM. That is a double-digit micromolar value.
